The values below come from paper PMC7692546.

What is called Ki is a dissociation constant, usually derived from enzyme kinetics or from competition with a known ligand.

In assay [1] the target is F. hepatica cathepsin L3 (Fasciola hepatica). Kind of assay: enzyme inhibition (fluorogenic peptide substrate); KT inhibitor (2 μM) incubated with each protease in 100 μl reaction buffer for 15 min at 37 °C, then fluorogenic substrate; inhibition constants by the Morrison equation for tight-binding inhibition.
Assay [2] has the same target.
Assay [3] addresses Human cathepsin L (human). Nature of the assay: enzyme inhibition (fluorogenic peptide substrate); KT inhibitor (2 μM) incubated with each protease in 100 μl reaction buffer for 15 min at 37 °C, then fluorogenic substrate; inhibition constants by the Morrison equation for tight-binding inhibition.
Assay [4] addresses Bovine trypsin (bovine). The description is as above.
The target of assay [5] is F. hepatica cathepsin L1 (Fasciola hepatica). Described as above.
In assay [6] the target is F. hepatica cathepsin L2 (Fasciola hepatica). The assay is described as above.
Assay [7] concerns the target Human cathepsin K (human) (UniProt P43235). Described as above.
Assay [8] has as its target Bovine trypsin (bovine).

Human cathepsin K (human), sequence (P43235 115-329): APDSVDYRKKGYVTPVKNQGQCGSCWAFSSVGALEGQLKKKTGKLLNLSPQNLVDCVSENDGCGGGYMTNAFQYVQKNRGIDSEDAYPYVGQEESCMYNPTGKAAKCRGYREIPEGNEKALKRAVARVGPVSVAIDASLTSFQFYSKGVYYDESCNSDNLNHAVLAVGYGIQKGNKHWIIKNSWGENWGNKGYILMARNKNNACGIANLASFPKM

As to “Recombinant FhKT1.1 (Fasciola hepatica Kunitz-type inhibitor 1.1) (natural protein)”, in assay [1], the inhibition constant Ki was 1.8 nM. In assay [2], this substance yielded a reduction of FhCL3 activity at 2 μM inhibitor (fluorogenic substrate) of 93.1%.
“Recombinant FhKT1.3 (Fasciola hepatica Kunitz-type inhibitor 1.3) (natural protein)”: the inhibition constant Ki in assay [3] came to 2.6 nM; with Bovine trypsin (bovine) [4] it was 1.8 nM; in assay [5], 0.6 nM; in assay [6] it was 10.6 nM; in assay [7], 5.5 nM; in assay [1], 3.2 nM. The same substance gave a reduction in trypsin activity at 2 μM inhibitor (fluorogenic substrate) with Bovine trypsin (bovine) [8] of 99.2%.
For the substance rFhKT1.1Arg^19/Ala^19 (natural protein), the inhibition constant Ki worked out at 0.3 nM in assay [3]; 4.2 nM in assay [5]; 35 nM in assay [6]; 18.5 nM in assay [7]; 32.8 nM in assay [1].
Consider rFhKT1.1Leu^15/Arg^15 (natural protein), for which the Ki in assay [1] is 3.6 nM.
